From article PMC7738837, “Synthesis and evaluation of ^68Ga-labeled dimeric cNGR peptide for PET imaging of CD13 expression with ovarian cancer xenograft” (Journal of Cancer, 2021)
Where two headings read alike, the source gives them in different places. Positions of bridges follow the written chain, without caps; N, C: chain ends. Non-standard residues stand in square brackets, D forms with d. Residues, ends and D or L forms follow the SMILES beside them. Chains are numbered I, II in the order given. *: point of attachment. DOTA = O=C(O)CN1CCN(CC(=O)O)CCN(CC(=O)*)CCN(CC(=O)O)CC1; PEG4 = NCCOCCOCCOCCOCCC(=O)O

Tests used:
[1] = In vitro stability in saline/PBS at room temperature (radiochemical purity); type: physicochemical; settings: ~3.7 MBq tracer in saline (method: PBS), 3 h of incubation, radio-HPLC
Procedure: A volume of 80 μL 1 mol/L HEPES (pH 5.0) was added to 200 μL ^68GaCl3 (37-74 MBq) eluent, and then the mixture was incubated with 40 μL DOTA-c(NGR)2 stock solution in a water bath at 95°C for 10 min. Quality control was performed by radio-HPLC (Agilent Technologies, Santa Clara, CA, USA) with a VP-ODS C18 column (Shimadzu, Kyoto, Japan) and an online radioactivity detector (Zonkia Scientific Instruments Co., Ltd., Anhui Province, China). The mobile phase was composed of solvent A, 0.1% trifluoroacetic acid (TFA) in water, and solvent B, 0.1% TFA in acetronitrile. The flow rate was set at 1 mL/min, and the UV wavelength was set at 220 nm. The mobile phase was gradiently changed from 20% solvent B to 30% solvent B in 20 min.
To evaluate the in vitro stability, ~3.7 MBq of ^68Ga-DOTA-c(NGR)2 was incubated in phosphate-buffered saline (PBS) at room temperature or bovine serum at 37 °C, respectively. The radiochemical purity was determined at time points of 30 min and 1, 2 and 3 h.

[2] = test system: ES2 cells; experiment: In vitro cell binding/uptake assay, ES2 cells; type: cell-based, human; settings: 37 KBq per well, 37°C
[3] = test system: SKOV3 cells; experiment: In vitro cell binding/uptake assay, SKOV3 cells; type: cell-based, human; settings: 37 KBq per well, 1×10^6 cells/well, 37°C, time points 5 min to 2 h, gamma counter, mean ± SD
[4] = MicroPET imaging and blocking, ES2 tumor-bearing nude mice; settings: female, BALB/c nude, mouse, in vivo, iv, total radioactivity
Procedure: (§1) The human OVCA ES2 and SKOV3 cells were obtained from Nanjing Keygen Biotech Co., Ltd. (Nanjing, China). ES2 cells were maintained as monolayer cultures in McCoy's medium 5A supplemented with 10% fetal bovine serum (FBS), and SKOV3 cells were cultured in RPMI-1640 medium supplemented with 10% FBS. Both cell lines were incubated at 37°C in a humidified atmosphere containing 5% CO2. Cells in log phase were harvested by trypsinization, washed with PBS twice and adjusted to 5×10^7/mL in PBS. A volume of 0.1 mL single-cell suspension was subcutaneously injected into the front flank of each female […] nude mouse (~4-6 weeks old, body weight of 18-25 g; Slac Laboratory Animal, Shanghai, China). Animal models were used for PET imaging experiments when xenografts grew to 500-1,000 mm^3. All animal-related studies were approved by the Institutional Animal Care and Use Committee of Soochow University.
(§2) Two groups of female Balb/c nude mice (n=6/group) bearing ES2 tumors were used to conduct static microPET imaging with an Inveon microPET scanner (Siemens Medical Solutions, Erlangen, Germany). The first group was injected with 7.4 MBq ^68Ga-DOTA-c(NGR)2 via tail vein under anesthesia with 1%-2% isoflurane, and a series of static image data, 10 min for each time point, were collected at 30 min, 1, 1.5, and 2 h post injection. For blocking studies, the second group of mice was injected with 100 μg unlabeled peptide in 100 μL saline via tail vein, immediately followed by administration of ^68Ga-DOTA-c(NGR)2, and then images were acquired at 30 min, 1, 1.5 and 2 h post-injection, each for 10 min. The obtained images were processed using Siemens Inveon Research Workplace 4.0 (IRW 4.0) and reconstructed using three-dimensional ordered-subset expectation maximization. Regions of interest (ROIs) were drawn over the tumor (T) and muscle of the contralateral forelimb, and the latter served as the background (B). Moreover, %ID/g of tumors and the T/B ratio were determined. The same studies were repeated in female Balb/c nude mice bearing SKOV3 tumors without the blocking experiments.

[5] = in vivo; settings: female, BALB/c nude, mouse, iv, 7.4 MBq, total radioactivity
Procedure: as §1, §2

[6] = test system: normal ICR mice
Procedure: (§3) Biodistribution studies were performed using 30 normal ICR (Institute of Cancer Research) mice (18-30 g; age, 4 weeks). […] The blood, muscle and other organs of interest (brain, heart, liver, lungs, spleen, pancreas, kidneys, stomach, small intestine and femur) were immediately harvested, weighed and counted with a gamma counter. Data were normalized to the time of injection and expressed as percent injected dose per gram (% ID/g).

[7] = in vivo; settings: ICR, mouse, iv, 3.7 MBq, total radioactivity
Procedure: as §3

In the case of `N=C(N)NCCC[C@@H]1NC(=O)CNC(=O)[C@H](CC(N)=O)NC(=O)[C@@H](NC(=O)CCOCCOCCOCCOCCNC(=O)CC[C@H](NC(=O)CCOCCOCCOCCOCCNC(=O)CN2CCN(CC(=O)O)CCN(CC(=O)O)CCN(CC(=O)O)CC2)C(=O)NCCOCCOCCOCCOCCC(=O)N[C@H]2CSSC[C@@H](C(=O)N[C@@H](Cc3ccc(O)cc3)C(=O)O)NC(=O)[C@H](CCCNC(=N)N)NC(=O)CNC(=O)[C@H](CC(N)=O)NC2=O)CSSC[C@@H](C(=O)N[C@@H](Cc2ccc(O)cc2)C(=O)O)NC1=O` [^68Ga-DOTA-c(NGR)2, metal not drawn] (I: {DOTA-PEG4}-E[PEG4]CNGRCY-OH / II: [PEG4]CNGRCY-OH; amide I:1-II:N; disulfide I:3-I:7, II:2-II:6), the “radiochemical purity after incubation in saline” value [1] is reported as > 96%, the “highest binding to ES2 cells” value ([2]; 1×10^6 cells/well, after 2 h of incubation, gamma counter, mean ± SD) is reported as 3.00% ± 0.59 and the “time to almost saturated binding to ES2 cells” value [2] is reported as ≤ 30 min. The “highest binding to SKOV3 cells” value [3] was 1.79% ± 0.34, the tissue uptake at 1 h ([4]; 7.4 MBq) was 0.62 ± 0.09 %ID/g and the tissue uptake at 1.5 h ([4]; 7.4 MBq) was 0.53 ± 0.08 %ID/g. The tissue to tissue ratio at 1 h [4] was 10.3 ± 0.26, the tissue to tissue ratio at 1.5 h [4] was 8.04 ± 1.75 and the tissue uptake at 1 h ([4]; microPET, 100 μg unlabeled peptide i.v. immediately before tracer, 1 h post-injection, n=6, mean ± SD, read-out: uptake in ES2 tumors in the blocking experiment) was 0.16 ± 0.03 %ID/g. The tissue uptake at 1.5 h ([4]; microPET, 100 μg unlabeled peptide i.v. immediately before tracer, 1.5 h post-injection, n=6, mean ± SD, read-out: uptake in ES2 tumors in the blocking experiment) was 0.14 ± 0.02 %ID/g, the tissue to tissue ratio at 1 h [5] was 3.99 ± 0.18 and the tissue to tissue ratio at 1.5 h [5] was 4.24 ± 0.73. The tissue uptake at 1 h [5] was 0.32 ± 0.03 %ID/g, the tissue uptake at 1.5 h [5] was 0.24 ± 0.05 %ID/g and the “decrease of kidney uptake from peak” value ([6]; 30 min post-injection versus 5 min) was “more than 50%”. The “decrease of kidney uptake from peak” value ([6]; 120 min post-injection versus 5 min) was > 85%, the tissue uptake at 5 min ([7]; blood) was 7.44 ± 1.64 %ID/g and the tissue uptake at 1 h ([7]; blood) was 0.31 ± 0.05 %ID/g. For the same compound, the tissue uptake at 5 min ([7]; kidney) was 16.7 ± 5.8 %ID/g.
